Assay: SGF digest of 168 nutritive polypeptide library, intact protein by LC-MS/MS
Assay type: in vitro ADME
Settings: 168 nutritive polypeptide library SGF digest, LC-MS/MS spectral counts
Experimental: The in vitro intact half-life of multiple polypeptides in a complex mixture was determined using the simulated gastric in vitro digestion described above. Briefly, the 168 nutritive polypeptide library was generated as described herein by cloning, transforming, and expressing a gene library encoding 168 proteins as a single mixture. The recombinantly expressed proteins were purified from host cell proteins by IMAC purification as described herein.
The 168 Protein Library was treated with SGF as described above and the t=0 and t=10 min samples were analyzed for intact protein by LC-MS/MS. To begin, 10 μg of sample was loaded onto a 10% SDS-PAGE gel (Invitrogen) and run approximately 5 cm into the gel. The gel was excised into ten fractions from 100 kD to the dye front and the gel slices were processed by washing with 25 mM ammonium bicarbonate, followed by acetonitrile. Gel fractions were then reduced with 10 mM dithiothreitol at 60° C., followed by alkylation with 50 mM iodoacetamide at room temperature. Finally, the samples were digested with trypsin (Promega) at 37° C. for 4 h and the digestions were quenched with the addition of formic acid. The samples were then analyzed by nano LC/MS/MS using an EasynLC 1000 HPLC system interfaced to a ThermoFisher Q Exactive. Peptides were loaded on a trapping column and eluted over a 75 μm analytical column at 350 nL/min; both columns were packed with PepMap C18 3 μm resin (ThemoFisher). A 1 hour gradient was employed. The mass spectrometer was operated in data-dependent mode, with MS and MS/MS performed in the Orbitrap at 70,000 FWHM resolution and 17,500 FWHM resolution, respectively. The fifteen most abundant ions were selected for MS/MS. Data were searched against an appropriate database using Mascot to identify peptides. Mascot DAT files were parsed into the Scaffold software for validation, filtering and to create a nonredundant list per sample. Data were filtered at 1% protein and peptide false discovery rate (FDR) and requiring at least two unique peptides per protein. A full list of detected proteins and their spectral counts (SpC) was generated and reported as a function of each collected gel fraction. SpC are a count of the number of spectra identified for a given protein and are used as a measure of relative protein abundance (Liu, H. et al., Analytical Chemistry 2004, 76: 4193-4201). To calculate the percentage of intact protein remaining at the 10 min time point of the SGF digest the number of SpC representative of intact peptide in the t=10 min sample were divided by the number of SpC representative of intact peptide in the t=0 min sample. The number of SpC representative of intact peptide was defined as the sum of the SpC in the fraction with the highest number of SpC assigned to that protein in the t=0 min sample and the two flanking fractions.

Molecule	% Intact Protein at 10 min [%]
SEQID-00623: protein of the 168 nutritive polypeptide library (protein, listed as Solanum lycopersicum) MKPAEKKPAEKTPVAEKAPAEKKPKAGKKLPKDAAAGDKKKKRSKKAVETYKIYIFKVLKQVHPDIGISSKAMGIMNSFINDIFEKLAQEASRLARYNKKPTITSREIQTAVRLVLPGELAKHAVSEGTKAVTKFTSS	63.6
SEQID-00632: protein of the 168 nutritive polypeptide library (protein, listed as Saccharomyces cerevisiae, source: /note="strain ATCC 204508 / S288c", protein of the 168 nutritive polypeptide library) MSTVTKYFYKGENTDLIVFAASEELVDEYLKNPSIGKLSEVVELFEVFTPQDGRGAEGELGAASKAQVENEFGKGKKIEEVIDLILRNGKPNSTTSSLKTKGGNAGTKAYN	1.2
SEQID-00626: protein of the 168 nutritive polypeptide library (protein, listed as Lactobacillus acidophilus, source: /note="strain 30SC", protein of the 168 nutritive polypeptide library) MVMTDPIADYLTRIRNANMAKHDSVEIPASNIKKSISEILKREGFIRDYEVADDNKQGVIKVFLKYGPNGERVISGLKRISKPGLRNYVSAEDLPKVLNGLGIAIVSTSAGVITDKEARQKNVGGEVIAYIW	0
SEQID-00602: protein of the 168 nutritive polypeptide library (protein, listed as Lactobacillus acidophilus, source: /note="strain 30SC", protein of the 168 nutritive polypeptide library) MKSYMKKIAAVVAVAGVALSTAACSNGGSNSTVASYKGGKITQQQYYDEMKKSQAGKSTLANMIINRALEQQYGKYVSSKKVDKQYNNYKKQYGSQFSAVLQQNGMTASSFKENLKTNLLSEQALKHIKKISKKQEQQAWKSYQPKVTVQHILVAKKSTAQSIIKQLKDGKSFKSLAKKYSLDTATKNKAGKLPAFDSTDNTLDSSFKTAAFKLKTGEVTSTPVKSQSGYHVIKMISHPAKGKFADHKKAIDDEIYASMAQDQATMKDVISTVLKRADVSIKDSDLKDVLASYVSTTSATK	0
SEQID-00628: protein of the 168 nutritive polypeptide library (protein, listed as Saccharomyces cerevisiae, source: /note="strain ATCC 204508 / S288c", protein of the 168 nutritive polypeptide library) MSDFQKEKVEEQEQQQQQIIKIRITLTSTKVKQLENVSSNIVKNAEQHNLVKKGPVRLPTKVLKISTRKTPNGEGSKTWETYEMRIHKRYIDLEAPVQIVKRITQITIEPGVDVEVVVASN	0
SEQID-00624: protein of the 168 nutritive polypeptide library (protein, Arthrospira platensis NIES-39, protein of the 168 nutritive polypeptide library) MSEKTDQILEQLKSLSLLEASELVKQIEEAFGVDASASAGGGMMMMAAPGMAAPGAEAAAEEEKTEFDVILTEFPADKKIAVLKVVRSITGLGLKEAKDLVESAPKAIKEATTKEDAESIKKQLEESGAKVEVK	0
SEQID-00618: protein of the 168 nutritive polypeptide library (protein, Glycine max, protein of the 168 nutritive polypeptide library) MDAGGKIKKGAGGRKGGGPKKKPVSRSVKAGLQFPVGRIGRYLKKGRYAQRVGTGAPVYLAAVLEYLAAEVLELAGNAARDNKKNRIIPRHVLLAVRNDEELGKLLAGVTIAHGGVLPNINPVLLPKKTERASKEPKSPSKATKSPKKA	0
SEQID-00612: protein of the 168 nutritive polypeptide library (protein, listed as Oryza sativa, source: /note="subsp. japonica", protein of the 168 nutritive polypeptide library) MICLRAAFPLTSSPLRRLALKPSSSRAAAAAMSSAIAAPVEHIVLIKVRPEAASSGAAAAMVSSLQALSTAVPGLSYIHVGPVLRLRSPAAEALGPTHVLHSRYATKPDLAAYAAHPAHVAAVQGHVLPNALDSTAIDWVNAALVPSPVNPGSAVRLSLAKLKEGVEAHQLAEKLAAATAAAGEAKGAKVSFGENFSPARAKGYQFGMVAVFDSVEGLDAVDGDGKVEAAKAIVRPLLDDVLELEFVVGPAAAEAPAPANL	0
SEQID-00625: protein of the 168 nutritive polypeptide library (protein, Glycine max, protein of the 168 nutritive polypeptide library) MPFKRYVEIGRVAQINYGKEYGRLVVIVDVIDQNRALVDAPDMVRSQVNFKRLSLTDIKIDIKRVPKKKDLVKAMEDADVKTKWEKSSWGRKLIVRKRRASLNDFDRFKIMLAKIKKAAVVRQELAKLRKSA	0
SEQID-00607: protein of the 168 nutritive polypeptide library (protein, Arthrospira platensis C1, protein of the 168 nutritive polypeptide library) MALQDDWQQSHLERRQVLAESQKQIWATIGLWQRERYSQAITQKQDRQAFVSQLKQENQAFLADAHNNHRQQAEQLAEDLKEFVRSLQKETATFLEESAQSRAEKAEELAQELRDFRAELRDTVAQWQQQWQQQDQERAAGRRKLAQQVQGDLQEFNIIRTIMAEKLLQQTQEAKAERLAGIQSMFEDMGKFRMQLQEYRREREKSVWGGERVKSTPATPQKAKASQTLVPQTKPKAVKSAPSTTTAAQSTTPTAVVVAEPTKPAVPPNQPKPTTVVPHPPNPG	0
SEQID-00617: protein of the 168 nutritive polypeptide library (protein, Arthrospira platensis NIES-39, protein of the 168 nutritive polypeptide library) MNKEQLVQETSIKAGVTKKQADAIISAICECIMDAVADGEKVTLVGFGSFEARHRKAREGRNPSTGQPMTIPATTVPAFSAGKAFKERVANESNENVA	43.9
SEQID-00633: protein of the 168 nutritive polypeptide library (protein, listed as Saccharomyces cerevisiae, source: /note="strain ATCC 204508 / S288c", protein of the 168 nutritive polypeptide library) MSDAGRKGFGEKASEALKPDSQKSYAEQGKEYITDKADKVAGKVQPEDNKGVFQGVHDSAEKGKDNAEGQGESLADQARDYMGAAKSKLNDAVEYVSGRVHGEEDPTKK	92.1
SEQID-00619: protein of the 168 nutritive polypeptide library (protein, listed as Linum usitatissimum) MAPKAAEKKPAEKKPAEEKKAEKAPAEKKPRAEKKLPKEGGAAAADKKKKRNKKNVETYKIYIFKVLKQVHPDIGISSKAMGIMNSFINDIFEKLAAESSRLARYNKKPTITSREIQTAVRLVLPGELAKHAVSEGTKAVTKFTSS	68.5
SEQID-00609: protein of the 168 nutritive polypeptide library (protein, listed as Saccharomyces cerevisiae, source: /note="strain ATCC 204508 / S288c", protein of the 168 nutritive polypeptide library) MSNPFDLLGNDVEDADVVVLPPKEIVKSNTSSKKADVPPPSADPSKARKNRPRPSGNEGAIRDKTAGRRNNRSKDVTDSATTKKSNTRRATDRHSRTGKTDTKKKVNQGWGDDKKELSAEKEAQADAAAEIAEDAAEAEDAGKPKTAQLSLQDYLNQQANNQFNKVPEAKKVELDAERIETAEKEAYVPATKVKNVKSKQLKTKEYLEFDATFVESNTRKNFGDRNNNSRNNFNNRRGGRGARKGNNTANATNSANTVQKNRNIDVSNLPSLA	0
SEQID-00613: protein of the 168 nutritive polypeptide library (protein, Arthrospira platensis C1, protein of the 168 nutritive polypeptide library) MGLFDRIGRVVRANLNDLVNKAEDPEKILEQAVIEMQEDLIQLRQAVAQTIAQQKRSQQQYNQAQSQANQWQSRAQLALQKGDENLAREALQRKKGYLETANTLEISLRQQTEQVETLKRNLVSLESKISEAKTKKNMLKARAQAAKANEQLNNVLGGINTSSATSVFERMEEKVMIQEAKSQAAAELMGSGLEEQFRALEEGSDVDDELAAMKAQLAGAPANQPQLSPSAPTDSSTSNPEIDNELEELRRELNK	0
SEQID-00620: protein of the 168 nutritive polypeptide library (protein, listed as Saccharomyces cerevisiae, source: /note="strain ATCC 204508 / S288c", protein of the 168 nutritive polypeptide library) MSDVEEVVEVQEETVVEQTAEVTIEDALKVVLRTALVHDGLARGLRESTKALTRGEALLVVLVSSVTEANIIKLVEGLANDPENKVPLIKVADAKQLGEWAGLGKIDREGNARKVVGASVVVVKNWGAETDELSMIMEHFSQQ	0
